Substitutions are numbered along the chain they refer to. Names may count otherwise.
T1: rh wild-type Bri2 BRICHOS-mCherry (human, UniProt Q9Y287 113-231)
T1 construct: Bri2 BRICHOS domain, human (rh = recombinant human), Bri2 residues 113-231; Used as isolated oligomers; also called rh Bri2 BRICHOS-mCherry; source: E. coli SHuffle T7, purified (same protocol as R221E; oligomers isolated on Superdex 200 PG); not shown: His6, N-terminal, cleaved; NT*, N-terminal, cleaved; mCherry, C-terminal, kept
T1 sequence (looked up): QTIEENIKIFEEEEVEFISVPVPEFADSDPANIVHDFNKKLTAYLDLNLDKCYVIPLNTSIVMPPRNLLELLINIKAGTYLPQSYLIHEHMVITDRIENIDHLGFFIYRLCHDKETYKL

B1: rh wild-type Bri2 BRICHOS (domain or fragment, human, UniProt Q9Y287 113-231, looked up)
chain: T1 sequence (looked up)
notes: Bri2 BRICHOS domain, human (rh = recombinant human), Bri2 residues 113-231; also called rh wt Bri2 BRICHOS; wild-type monomers; source: E. coli SHuffle T7, purified (Ni-NTA, thrombin cleavage, second Ni-NTA, SEC); not shown: His6, N-terminal, cleaved; NT*, N-terminal, cleaved
B2: rh Bri2 BRICHOS R221E monomer (domain or fragment, human, UniProt Q9Y287 113-231, looked up)
chain: T1 sequence (looked up) with R109E
modifications: intramolecular disulfide bond between the two conserved Cys (monomer, by ESI-MS)
notes: Bri2 BRICHOS domain, human (rh = recombinant human), Bri2 residues 113-231, with R221E; Used here for the isolated monomer and as the subunit in the rows on self-association (oligomers, dimers); Measured mass 14,050.2 Da; also called rh Bri2 R221E monomer; source: E. coli SHuffle T7, purified (Ni-NTA, thrombin cleavage, second Ni-NTA, SEC); not shown: His6, N-terminal, cleaved; NT*, N-terminal, …

Tests used:
[1] = target: the molecule itself; test: SEC; isolated monomers at low concentration (~7.5 µM) and high concentrations (54 µM for R221E, 30 µM for wt)
[2] = target: T1, rh wild-type Bri2 BRICHOS-mCherry; test: not stated; coincubation of R221E monomers with Bri2 BRICHOS-mCherry oligomers at rising molar ratios; release of wild-type monomers followed (Supplementary Fig. 5); details: both partners purified

Binder | stoichiometry N [1] | molar ratio of mutant to wild-type oligomers at which the release of wild-type monomers saturates [2]
B1 | 2 | –
B2 | – | ~2 mol/mol
